These results are taken from article PMC3679036.

The target of assay [1] is RhoA (UniProt Q9QUI0). The assay can be described thus: anti-RhoGDI1 co-IP from cytosolic fraction. To be noted: reference: unstimulated acini; sites S96.
The target in assay [2] is RhoA (UniProt Q9QUI0). Nature of the assay: anti-RhoGDI1 co-IP from acinar lysate. The following applies: reference: unstimulated acini; sites S96.

As to “RhoGDI1 (endogenous) (from UniProt Q99PT1) CCK 300 pM, 5 min”, the percent of reference in the assay with RhoA [1] stood at 42%. Consider “RhoGDI1 (endogenous) (from UniProt Q99PT1) PMA 500 nM”, for which, in the assay with RhoA [2], the percent of reference is 37%.
